{"source": "patent US20180318435A1", "about": "(UNITED STATES OF AMERICA AS REPRESENTED BY THE SECRETARY …, published 2018)", "binders": {"B1": {"name": "LMB70: BM306-Fab-LR-GGS immunotoxin (protein, part only; not given: Fab constant domains and toxin part)", "VH": "EVQLQQSGPELVKPGASVKISCKTSGYTFTEYTINWVKQSHGKSLEWIGDIYPDNYNIRYNQKFKGKATLTVDKSSSTAYMELRSLSSEDSAIYYCANHDFFVFWGQGTLVTVSA", "VL": "DIQMTQATSSLSASLGDRVTINCRTSQDISNHLNWYQQKPDGTVKLLIYYTSRLQSGVPSRFSGSGSGTDYSLTISNLEQEDIGTYFCHQGNTLPPTFGGGTKLEIK", "modifications": "Fused to a Pseudomonas exotoxin domain III variant (PE-LR-GGS), which the letters do not carry."}, "B2": {"name": "BM306 anti-BCMA monoclonal antibody (antibody, V domains shown)", "VH": "EVQLQQSGPELVKPGASVKISCKTSGYTFTEYTINWVKQSHGKSLEWIGDIYPDNYNIRYNQKFKGKATLTVDKSSSTAYMELRSLSSEDSAIYYCANHDFFVFWGQGTLVTVSA", "VL": "DIQMTQATSSLSASLGDRVTINCRTSQDISNHLNWYQQKPDGTVKLLIYYTSRLQSGVPSRFSGSGSGTDYSLTISNLEQEDIGTYFCHQGNTLPPTFGGGTKLEIKR", "notes": "Mouse hybridoma mAb, IgG1 with a kappa light chain"}, "B3": {"name": "BM24 anti-BCMA monoclonal antibody (antibody, V domains shown)", "VH": "EVQLQQSGPELVKPGASVKMSCKASGNTLTNYVIHWMKQMPGQGLDWIGYILPYNDLTKYNEKFTGKATLTSDKSSSSAYMELNSLTSEDSAVYYCTRWDWDGFFDPWGQGTTLTVSS", "VL": "DIVMTQSPLSLPVSLGDQASISCRSTQSLVHSNGNTHLHWYLQRPGQSPKLLIYSVSNRFSEVPDRFSASGSGTDFTLKISRVEAEDLGVYFCSQTSHIPYTFGGGTKLEIKR", "notes": "as for B2"}}, "key": {"[1]": {"molecular_target": "BCMA (target of the LMB70 affinity measurement; not named, form not stated) (UniProt Q02223)", "test": "affinity measurement after the first labeling; method and target not stated"}, "[2]": {"molecular_target": "full-length human BCMA (TNFRSF17, CD269) on the cell surface (human) (UniProt Q02223)", "test": "cell-based or functional assay"}, "[3]": {"molecular_target": "T1, full-length human BCMA (TNFRSF17, CD269) on the cell surface (human, UniProt Q02223 1-184)", "T1 sequence (looked up)": "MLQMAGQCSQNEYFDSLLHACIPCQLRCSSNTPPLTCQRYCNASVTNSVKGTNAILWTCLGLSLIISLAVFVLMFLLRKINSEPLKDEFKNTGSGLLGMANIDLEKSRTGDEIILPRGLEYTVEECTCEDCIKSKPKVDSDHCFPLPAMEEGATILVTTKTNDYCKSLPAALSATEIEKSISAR", "test": "cell-based or functional assay"}, "[4]": {"molecular_target": "T2, BCMA-rFc fusion protein (extracellular domain of human BCMA, residues 1-54, fused to rabbit IgG Fc) (human; rabbit, UniProt Q02223 1-54)", "T2 construct": "range 1-54; also called recombinant BCMA-rFc; not shown: rabbit IgG heavy chain hinge region and Fc region (CH2 and CH3 domains), from vector pFUSE-rFc1 (InvivoGen); limits not", "T2 sequence (looked up)": "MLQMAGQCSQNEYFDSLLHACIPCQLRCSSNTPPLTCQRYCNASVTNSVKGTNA", "test": "bio-layer interferometry (BLITZ), BCMA-rFc immobilized by amine coupling, mAb in solution"}}, "data": [{"binder": "B1", "values": [{"measurement": "Bmax", "setting": "[1]", "value": 2220}, {"measurement": "IC50 (ng/ml), WST assay, H929 cells", "setting": "[2]", "value": 1.1, "unit": "ng/mL"}, {"measurement": "IC50 (ng/ml), WST assay, JJN-3 cells", "setting": "[2]", "value": 4, "unit": "ng/mL"}, {"measurement": "IC50 (ng/ml), WST assay, KMS-18 cells", "setting": "[2]", "value": 65, "unit": "ng/mL"}, {"measurement": "IC50 (ng/ml), WST assay, LP-1 cells", "setting": "[2]", "value": 20, "unit": "ng/mL"}, {"measurement": "IC50 (ng/ml), WST assay, RPMI-8226 cells", "setting": "[2]", "value": 5.1, "unit": "ng/mL"}, {"measurement": "IC50 (ng/ml), WST assay, U266B cells", "setting": "[2]", "value": 5, "unit": "ng/mL"}, {"measurement": "IC50, WST assay, H929 cells", "setting": "[2]", "value": "1 to 1.5", "unit": "ng/mL"}]}, {"binder": "B2", "values": [{"measurement": "IC50 (ng/ml), WST assay, H929 cells", "setting": "[3]", "value": "> 1000", "unit": "ng/mL"}, {"measurement": "IC50 (ng/ml), WST assay, JJN-3 cells", "setting": "[3]", "value": "> 1000", "unit": "ng/mL"}, {"measurement": "IC50 (ng/ml), WST assay, RPMI-8226 cells", "setting": "[3]", "value": "> 1000", "unit": "ng/mL"}, {"measurement": "IC50 (ng/ml), WST assay, U266B cells", "setting": "[3]", "value": "> 1000", "unit": "ng/mL"}, {"measurement": "Kd", "setting": "[4]", "value": "< 1", "unit": "pM"}, {"measurement": "koff", "setting": "[4]", "value": "< 1e-07", "unit": "s⁻¹"}, {"measurement": "kon", "setting": "[4]", "value": 415000, "unit": "M⁻¹ s⁻¹"}]}, {"binder": "B3", "values": [{"measurement": "Kd", "setting": "[4]", "value": "< 1", "unit": "pM"}, {"measurement": "koff", "setting": "[4]", "value": "< 1e-07", "unit": "s⁻¹"}, {"measurement": "kon", "setting": "[4]", "value": 297000, "unit": "M⁻¹ s⁻¹"}]}]}
